Two molecules from patent US20250368742A1 (D2M BIOTHERAPEUTICS, published 2025) can be followed below.

For orientation: EC50 means the concentration that produces a half-maximal response. The low end stands for a more potent agent, the high end for a less potent agent. For orientation: Kd means the concentration at which binding is half-saturated. Read a high Kd as weaker binding.

In assay [1] the target is T1, human MICB005 on cells (human).
T1 construct: whole, on cells; also called CHO-MICB005; C1R-MICB005
The experiment in a line: flow cytometry on CHO-MICB005 cells; column Control_1w (control of the 1-week experiment).
Description: (§1) The plate was centrifuged, and cells were washed with PBS three times. […] After incubation for 30 minutes at room temperature, cells were washed with PBS twice. Signals of APC were determined by flow cytometry (Attune™ CytPix™, ThermoFisher) within the population of live cells (viability dye PI negative).
(§2) The EC50 values were calculated based on non-linear fitting curves by GraphPad Prism software.

Assay [2] deals with T1, human MICB005 on cells. As to the kind of experiment: flow cytometry, CHO-MICB005 cells.
Description: (§3) IgG1 is an isotype control (IgG). The antibody binding signals of APC (gMFI) to MICA/B were measured by flow cytometry.
(§4) After an incubation time of 30 minutes, the plate was centrifuged and cells were washed with PBS three times. […] After mixing for 30 minutes at room temperature, cells were washed with PBS twice. Fluorescent signal was detected and quantified by flow cytometry (Attune™ CytPix™, ThermoFisher) within the population of live cells (viability dye PI negative).
In assay [3] the target is T2, human MICA008 on cells (human).
T2 construct: whole, on cells; also called CHO-MICA008; C1R-MICA008
T2 sequence (Q29983 whole entry): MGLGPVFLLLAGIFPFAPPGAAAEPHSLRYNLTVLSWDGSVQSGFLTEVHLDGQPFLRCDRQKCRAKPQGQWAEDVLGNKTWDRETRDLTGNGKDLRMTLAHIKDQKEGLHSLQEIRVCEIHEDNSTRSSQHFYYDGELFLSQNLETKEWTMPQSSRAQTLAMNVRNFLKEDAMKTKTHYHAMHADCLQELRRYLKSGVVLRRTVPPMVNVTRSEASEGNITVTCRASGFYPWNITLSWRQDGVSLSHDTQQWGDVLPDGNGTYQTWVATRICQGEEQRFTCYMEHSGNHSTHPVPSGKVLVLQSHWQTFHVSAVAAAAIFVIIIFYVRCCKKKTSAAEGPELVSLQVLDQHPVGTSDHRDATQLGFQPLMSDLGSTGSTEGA
As to the kind of experiment: flow cytometry, CHO-MICA008 cells. (In general: Flow cytometry measures light scatter and fluorescence of single cells or particles in a stream.)

The target in assay [4] is T2, human MICA008 on cells. As to the kind of experiment: flow cytometry, CHO-MICA008 cells. This is another data set of the same source.
Description: as §3, §4
Assay [5] has as its target T1, human MICB005 on cells. As to the kind of experiment: flow cytometry, CHO-MICB005 cells. This is another data set of the same source.
In assay [6] the target is T2, human MICA008 on cells. As to the kind of experiment: flow cytometry, CHO-MICA008 cells. This is another data set of the same source.
Assay [7] concerns the target T3, MICA004-ECD-HISAvi (human).
T3 construct: also called MICA004 polypeptide
T3 chain: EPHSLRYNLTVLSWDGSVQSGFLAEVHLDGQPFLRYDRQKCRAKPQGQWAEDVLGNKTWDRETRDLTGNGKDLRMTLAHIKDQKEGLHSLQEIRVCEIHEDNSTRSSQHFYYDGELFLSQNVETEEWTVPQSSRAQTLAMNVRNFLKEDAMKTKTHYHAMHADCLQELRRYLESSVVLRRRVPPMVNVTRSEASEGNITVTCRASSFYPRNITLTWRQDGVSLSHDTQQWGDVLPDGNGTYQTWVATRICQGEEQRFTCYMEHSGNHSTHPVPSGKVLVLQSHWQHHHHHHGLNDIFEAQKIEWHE
As to the kind of experiment: SPR (Carterra); antibody captured by anti-human Fc, monomeric ECD antigen injected.
Description: (§5) The dissociation kinetics were monitored for approximately 10 minutes. The chip surface was regenerated between binding cycles with 10 mM glycine HCl, pH 1.7. Binding kinetics were analyzed using software supplied by the manufacturer.

The target in assay [8] is T4, MICA002-ECD-HISAvi (human, UniProt Q29983 24-308).
T4 construct: also called MICA002 polypeptide
T4 chain: T3 chain with W14G, Y36C, V122L, V129M, E173K, S175G, R181T, S206G, R210W, T215S
The assay is described as above.
Description: as §5

The target in assay [9] is T5, MICA008-ECD-HISAvi (human).
T5 construct: Two sources under one name in the two kinetic assays; also called MICA008 polypeptide
T5 chain: T3 chain with V122L, S175G, R181T, T213I, Q251R
The assay is described as above.
Description: as §5

Another assay deals with T6, MICB005-ECD-HISAvi (human, UniProt Q29980 24-309).
T6 construct: Two sources under one name in the two kinetic assays; also called MICB005 polypeptide
T6 sequence: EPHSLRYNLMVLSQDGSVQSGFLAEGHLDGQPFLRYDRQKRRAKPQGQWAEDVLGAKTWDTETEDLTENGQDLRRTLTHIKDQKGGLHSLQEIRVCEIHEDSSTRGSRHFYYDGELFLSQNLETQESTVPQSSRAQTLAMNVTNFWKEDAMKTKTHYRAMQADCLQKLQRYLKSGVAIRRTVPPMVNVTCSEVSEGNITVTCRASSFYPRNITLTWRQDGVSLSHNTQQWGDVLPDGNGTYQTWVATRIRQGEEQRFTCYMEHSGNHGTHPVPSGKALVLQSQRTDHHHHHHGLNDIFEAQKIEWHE
Described as above.

Assay [10] has as its target T2, human MICA008 on cells. The experiment in a line: flow cytometry, HeLa cells (MICA008).
The target of the next assay is T7, human MICA002 on cells (human).
T7 chain: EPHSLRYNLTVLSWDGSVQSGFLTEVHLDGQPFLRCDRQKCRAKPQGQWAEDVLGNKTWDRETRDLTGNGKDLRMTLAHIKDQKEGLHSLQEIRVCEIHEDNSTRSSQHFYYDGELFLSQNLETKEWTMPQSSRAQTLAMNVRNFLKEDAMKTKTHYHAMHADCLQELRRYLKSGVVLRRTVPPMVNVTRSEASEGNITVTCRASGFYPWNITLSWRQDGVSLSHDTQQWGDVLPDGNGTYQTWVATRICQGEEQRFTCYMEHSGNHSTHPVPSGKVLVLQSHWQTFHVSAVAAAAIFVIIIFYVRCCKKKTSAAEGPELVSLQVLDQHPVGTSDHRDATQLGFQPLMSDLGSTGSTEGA
As to the kind of experiment: flow cytometry, CHO-MICA002 cells.

Assay [11] concerns the target T1, human MICB005 on cells. The experiment in a line: flow cytometry on CHO-MICB005 cells; column Control_2w (control of the 2-week experiment).
Description: as §1, §2
For assay [12], the target named is T3, MICA004-ECD-HISAvi. As to the kind of experiment: SPR (Carterra); antibody captured by anti-human Fc, monomeric ECD antigen injected.
Description: as §5
Assay [13] concerns the target T4, MICA002-ECD-HISAvi. Described as above.
Description: as §5
In assay [14] the target is T5, MICA008-ECD-HISAvi. The description is as above.
Description: as §5

Positions count from the first letter of the chain named. Like-named read-outs stand apart in the source and are kept apart here.

Description for MICB005-ECD-HISAvi: as §5

B1: 1D5 (antibody, human IgG1, kappa, V domains shown)
VH: EIQLQQSGPELVKPGASVKVSCKASGYAFTSQNIYWVKQSHGKSLEWIGYIEPYNVVPMYNPKFKGKATLTVDKSSSSAYIHLNSLTSEDSAIYYCARSGSSNFDYWGQGTTLTVSS
VL: EIILTQSPTTMAASPGEKITITCSASSSISSHYLHWYQQKSGFSPKLLIYRTSNLASGVPARFSGSGSGTSYSLTIGTMEAEDVATYYCQQGSSLPLTFGAGTKVEIKR
notes: also called ID5
Turning to B1, the EC50 in the assay with human MICB005 on cells [1] came to 0.237 µg/mL; with human MICB005 on cells [2], 0.152 µg/mL; with human MICA008 on cells [3] it was 0.06 µg/mL; with human MICA008 on cells [4], 0.028 µg/mL; with human MICB005 on cells [5], 0.142 µg/mL; with human MICA008 on cells [6], 0.04 µg/mL. The EC50 with human MICA008 on cells [10] turned out to be 0.133 µg/mL; in the assay with human MICA002 on cells it was 0.209 µg/mL; in the assay with human MICB005 on cells [11], 0.264 µg/mL. Moreover, the Kd amounted to 1.35 nM with MICA004-ECD-HISAvi [7]; 0.47 nM in the assay with MICA002-ECD-HISAvi [8]; 1.79 nM in the assay with MICA008-ECD-HISAvi [9]; 2.3 nM in the assay with MICB005-ECD-HISAvi; 0.52 nM with MICA004-ECD-HISAvi [12]; 0.032 nM with MICA002-ECD-HISAvi [13]. The Kd in the assay with MICA008-ECD-HISAvi [14] is 0.269 nM.

B2: 3F9 (antibody, human IgG1, kappa, V domains shown)
VH: QVQLVESGGGLVKPGGSLRLSCAASGFTFSNYAMSWIRQAPGKGLEWVSYISPGGDYIYYADSVKGRFTISRDNAKNSLYLQMNSLRAEDTAVYYCTTDRRHYGSYAMDYWGQGTLVTVSS
VL: DIVMTQSPLSLPVTPGEPASISCRSSKSLLHSNLNTYLYWFLQKPGQSPQILIYRMSNLASGVPDRFSGSGSGTAFTLKISRVEAEDVGVYYCMQHLEYPFTFGPGTKLEIKR
notes: also called benchmark 3F9
B2: the EC50 with human MICB005 on cells [1] was determined as 0.836 µg/mL; in the assay with human MICB005 on cells [2], 0.572 µg/mL; in the assay with human MICA008 on cells [3], 0.272 µg/mL; with human MICA008 on cells [4] it was 0.119 µg/mL; with human MICA008 on cells [10], 0.651 µg/mL; with human MICB005 on cells [11] it was 0.956 µg/mL. Also, the Kd with MICA004-ECD-HISAvi [7] amounted to 4.05 nM; in the assay with MICA002-ECD-HISAvi [8] it was 5.67 nM; with MICA008-ECD-HISAvi [9], 2.82 nM; with MICB005-ECD-HISAvi it was 9.29 nM; with MICA004-ECD-HISAvi [12], 2.78 nM; with MICA002-ECD-HISAvi [13] it was 1.65 nM. The molecule further showed a Kd with MICA008-ECD-HISAvi [14] of 2 nM.
